# Reference: patent US20240391996A1
# Legend:
# [1] = biological target: recombinant human GH (Pharmaceutical and Medical Device Regulatory Science Society of Japan) (human) (UniProt P01241); assay: cell-based or functional assay
# [2] = biological target: recombinant human GH (Pharmaceutical and Medical Device Regulatory Science Society of Japan) (human) (UniProt P01241); assay: GH-GHR binding inhibition ELISA: biotin-labeled GH (5.5 ng/mL) on captured GHR-hFc, antibody varied
# recombinant human GH (Pharmaceutical and Medical Device Regulatory Science Society of Japan) (human), sequence (P01241 27-217 limits assumed): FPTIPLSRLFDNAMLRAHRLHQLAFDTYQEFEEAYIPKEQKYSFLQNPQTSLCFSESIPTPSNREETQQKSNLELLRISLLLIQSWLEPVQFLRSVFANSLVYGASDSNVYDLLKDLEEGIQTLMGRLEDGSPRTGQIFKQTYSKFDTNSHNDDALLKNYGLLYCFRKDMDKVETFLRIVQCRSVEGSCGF
substance,measurement,setting,value
"anti-GH mouse mAb (MAB1067, R&D Systems, Inc.) (antibody)",GH-dependent Nb2 cell proliferation inhibitory activity (IC50),[1],21.5 nM
same,IC50,[2],6.86 nM
